1 molecule from patent US20220289852A1 (ACCELERON PHARMA, published 2022) can be followed below.

Holding throughout (assay): SPR (Biacore), receptor-Fc captured by anti-Fc antibody, ligand injected
(In general: In SPR one partner is held on a chip, and binding of the other changes the refractive index at the surface.)

In one experiment the target is T1, activin C (UniProt P55103 237-352).
T1 sequence (looked up): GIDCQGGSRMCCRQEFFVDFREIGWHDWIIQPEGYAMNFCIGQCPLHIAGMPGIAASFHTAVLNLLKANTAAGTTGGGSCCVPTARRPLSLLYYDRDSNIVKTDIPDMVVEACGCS
The method, then: (§1) A Biacore™-based binding assay was used to compare ligand binding selectivity of the ActRIIB-Fc:ALK7-Fc heterodimeric complex described above with that of ActRIIB-Fc and ALK7-Fc homodimeric complexes. The ActRIIB-Fc:ALK7-Fc heterodimer, ActRIIB-Fc homodimer, and ALK7-Fc homodimer were independently captured onto the system using an anti-Fc antibody. Ligands were injected and allowed to flow over the captured receptor protein. Results are summarized in the table below, in which ligand off-rates (kd) most indicative of effective ligand traps are denoted by bold text.

For a further experiment, the target named is T2, activin B (UniProt P09529 293-407).
T2 sequence (looked up): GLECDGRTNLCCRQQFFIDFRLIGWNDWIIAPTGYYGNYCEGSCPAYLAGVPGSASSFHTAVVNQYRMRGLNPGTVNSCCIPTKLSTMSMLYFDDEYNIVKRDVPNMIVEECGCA
How it is done: as §1

The target of a further experiment is T3, BMP5 (UniProt P22003 317-454, limits assumed).
T3 sequence (looked up): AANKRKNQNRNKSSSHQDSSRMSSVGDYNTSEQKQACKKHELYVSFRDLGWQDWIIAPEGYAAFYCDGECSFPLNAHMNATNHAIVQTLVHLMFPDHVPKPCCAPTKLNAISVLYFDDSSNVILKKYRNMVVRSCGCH
How it is done:
as §1

The target in another experiment is T4, BMP6 (UniProt P22004 375-513, limits assumed).
T4 sequence (looked up): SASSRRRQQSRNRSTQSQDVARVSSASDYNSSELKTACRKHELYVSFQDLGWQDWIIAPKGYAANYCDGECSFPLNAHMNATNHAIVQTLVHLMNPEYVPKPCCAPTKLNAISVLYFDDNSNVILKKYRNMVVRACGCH
The method, then:
as §1

Another experiment addresses T5, activin AC (UniProt P08476 311-426; P55103 237-352).
T5 sequence (looked up) 1: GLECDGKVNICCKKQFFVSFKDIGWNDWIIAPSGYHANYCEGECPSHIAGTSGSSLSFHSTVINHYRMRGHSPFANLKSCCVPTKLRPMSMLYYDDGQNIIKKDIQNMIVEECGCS
T5 sequence (looked up) 2: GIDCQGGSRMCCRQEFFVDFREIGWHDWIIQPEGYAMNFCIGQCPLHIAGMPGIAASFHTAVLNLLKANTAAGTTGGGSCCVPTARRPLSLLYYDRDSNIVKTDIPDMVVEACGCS
The method, then: as §1

In a further experiment the target is T6, activin A (UniProt P08476 311-426).
T6 sequence (looked up): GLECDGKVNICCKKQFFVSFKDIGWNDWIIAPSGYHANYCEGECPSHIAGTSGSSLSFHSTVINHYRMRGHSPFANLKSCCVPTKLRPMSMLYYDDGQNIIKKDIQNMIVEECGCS
How it is done: as §1

B1: ActRIIB-Fc homodimer (Fc fusion)
chain: GRGEAETRECIYYNANWELERTNQSGLERCEGEQDKRLHCYASWRNSSGTIELVKKGCWLDDFNCYDRQECVATEENPQVYFCCCEGNFCNERFTHLPEAGGPEVTYEPPPTAPT
notes: also called ActRIIB-Fc homodimeric complex; ActRIIB homodimer; not shown: linker and Fc domain of the homodimer
For the molecule B1, the binding result in the experiment with activin C is “no binding”. In addition, the dissociation constant Kd with activin B came to 8 pM; with BMP5 it was 2900 pM; with BMP6, 160 pM; with activin AC, 160 pM; in the experiment with activin A, 11 pM. For the same molecule, the koff with activin B came to 0.00016 s⁻¹; in the experiment with BMP5, 0.075 s⁻¹; with BMP6 it was 0.0039 s⁻¹; with activin AC, 0.0031 s⁻¹; in the experiment with activin A, 0.00014 s⁻¹. The kon with activin B was 1.5e+07 M⁻¹ s⁻¹; in the experiment with BMP5, 2.6e+07 M⁻¹ s⁻¹; in the experiment with BMP6 it was 2.4e+07 M⁻¹ s⁻¹; in the experiment with activin AC, 2e+07 M⁻¹ s⁻¹; in the experiment with activin A, 1.3e+07 M⁻¹ s⁻¹.

By Kd is commonly meant the constant that tells how readily two partners part at equilibrium. Low readings indicate higher affinity, high ones lower affinity. Broadly, the koff is a measure of how fast the partners let go of each other. In general, kon refers to the second-order rate constant of association. The low end stands for slow association, the high end for fast association.
